From patent US20130252307A1
Numbering of substitutions follows the chain as printed. Numbers in names are those of the source.

B1: last common ancestor of animals and fungi (LAFCA) Trx (protein)
chain: MVIQVTNKDEFESILSEADKLVVVDFTATWCGPCKMIAPKFEELSEEYPDNVVFLKVDVDEVEDVAAEYGISAMPTFQFFKNGKKVDELTGANQEKLKAMIKKHAA
B2: archaeal/eukaryotic common ancestor (AECA) Trx (protein)
chain: MSVIEINDENFDEVIKKSDKVVVVDFWAEWCGPCRMIAPIIEELAEEYAGKVVFGKVNVDENPEIAAKYGIMSIPTLLFFKNGKVVDQLVGARPKEALKERIKKYL
B3: last archaeal common ancestor (LACA) Trx (protein)
chain: B2 chain with I4V, E5Q, I6L, S18N, D19N, E46K, V57L, I65T, R93M
B4: last eukaryotic common ancestor (LECA) Trx (protein)
chain: MVIQVTNKEEFEAILSEADKLVVVDFFATWCGPCKMIAPFFEELSEEYPDKVVFIKVDVDEVPDVAAKYGITSMPTFKFFKNGKKVDELVGANQEKLKQMILKHAP
B5: last common ancestor of γ-proteobacteria (LGPCA) Trx (protein)
chain: MSIIHVTDDSFDQDVLKADKPVLVDFWAEWCGPCKMIAPILDEIAEEYEGKLKVAKVNIDENPETAAKYGIRGIPTLMLFKNGEVAATKVGALSKSQLKEFLDANL
B6: last bacterial common ancestor (LBCA) Trx (protein)
chain: MSVIEINDENFEEEVLKSDKPVLVDFWAPWCGPCRMIAPIIEELAEEYEGKVKFAKVNVDENPETAAKYGIMSIPTLLLFKNGEVVDKLVGARPKEALKERIEKHL
B7: wild type human Trx enzyme (protein)
chain: VKQIESKTAFQEALDAAGDKLVVVDFSATWCGPCKMIKPFFHSLSEKYSNVIFLEVDVDDCQDVASECEVKCMPTFQFFKKGQKVGEFSGANKEKLEATINELV
B8: C35S human thioredoxin mutant (hTrx^C35S) (protein)
chain: B7 chain with C34S
B9: last common ancestor of cyanobacterial and deinococcus/thermus groups (LPBCA) Trx (protein)
chain: MSVIEVTDENFEQEVLKSDKPVLVDFWAPWCGPCRMIAPIIEELAKEYEGKVKVVKVNVDENPNTAAQYGIRSIPTLLLFKNGQVVDRLVGAQPKEALKERIDKHL

What was measured:
[1] = biological target: (I27G32C-A75C)8 polypeptide (UniProt Q8WZ42)
[2] = biological target: (I27G32C-A75C)8 polypeptide, Q8WZ42
[3] = biological target: (I27G32C-A75C)8 polypeptide (UniProt Q8WZ42); test: given as k10 (k10=δ0); three-state kinetic model fitted to force-dependent disulfide reduction rates, single-molecule AFM force-clamp, pH 7.2; not a direct binding assay
[4] = biological target: (I27G32C-A75C)8 polypeptide (UniProt Q8WZ42); test: given as α0 (k01=α0[Trx]); three-state kinetic model fitted to force-dependent disulfide reduction rates, single-molecule AFM force-clamp, pH 7.2; not a direct binding assay

| Molecule | staircases of single reduction events (AFM force-clamp) [2] | Δx12 (Å) [2] | β0 (s-^1) [2] | λ0 [2] | koff [3] | kon [4] | Δx02 (Å) [2] | γ0 [2] | also measured |
| --- | --- | --- | --- | --- | --- | --- | --- | --- | --- |
| Trx from Sulfolobus tokodaii |  |  |  |  |  |  |  |  | rate of disulfide reduction at pH 5 [1]: does not show detectable activity at pH 5; rate of disulfide reduction at pH 7, 50 pN [1]: active at pH 7 (0.12×10^5 M^-1 s^-1 at 50 pN) |
| Trx from Acetobacter aceti |  |  |  |  |  |  |  |  | rate of disulfide reduction at pH 5, 100 pN [1]: active at pH 5 (0.6×10^5 M^-1 s^-1 at 100 pN) |
| B1 | All the ancestral enzymes resurrected using the methods described herein were able to trigger staircases of reduction events | -0.74 Å | 37 s⁻¹ | 0.06 s⁻¹ | 4.6 s⁻¹ | 810000 M⁻¹ s⁻¹ |  |  |  |
| B2 | All the ancestral enzymes resurrected using the methods described herein were able to trigger staircases of reduction events | -0.84 Å | 25 s⁻¹ | 0.21 s⁻¹ |  |  | 0.19 Å | 0.019 µM⁻¹ s⁻¹ | rate constant of disulfide bond reduction extrapolated to zero force (pH 7.2) [2]: 30×10^5 M^-1 s^-1 for AECA Trx; reduction rate constant at pH 5 extrapolated to zero force [2]: 19×10^5 M^-1 s^-1 |
| B3 | All the ancestral enzymes resurrected using the methods described herein were able to trigger staircases of reduction events | -0.76 Å | 43 s⁻¹ | 0.38 s⁻¹ |  |  |  |  | rate constant of disulfide bond reduction extrapolated to zero force (pH 7.2) [2]: 29×10^5 M^-1 s^-1 for LACA Trx; reduction rate constant at pH 5 extrapolated to zero force [2]: 6.2×10^5 M^-1 s^-1 |
| B4 | All the ancestral enzymes resurrected using the methods described herein were able to trigger staircases of reduction events | -0.8 Å | 38 s⁻¹ | 0.18 s⁻¹ | 4.2 s⁻¹ | 760000 M⁻¹ s⁻¹ |  |  |  |
| B5 | All the ancestral enzymes resurrected using the methods described herein were able to trigger staircases of reduction events | -0.83 Å | 34 s⁻¹ | 0.35 s⁻¹ | 3.8 s⁻¹ | 480000 M⁻¹ s⁻¹ | 0.17 Å | 0.012 µM⁻¹ s⁻¹ |  |
| B6 | All the ancestral enzymes resurrected using the methods described herein were able to trigger staircases of reduction events | -0.74 Å | 30 s⁻¹ | 0.09 s⁻¹ | 5.8 s⁻¹ | 470000 M⁻¹ s⁻¹ | 0.19 Å | 0.004 µM⁻¹ s⁻¹ | rate of catalysis at pH 5 [2]: showed a high rate of catalysis at pH 5, where extant enzymes are largely inactive; reduction rates at pH 5 [2]: the reduction rates observed at pH 5 are strikingly similar to those measured at pH 7.2 |
| B7 |  |  |  |  |  |  |  |  | rate of reduction at pH 5, fold lower than LBCA [2]: modern E. coli and human thioredoxin show ˜20 fold lower rates at this pH; reoxidation of substrate disulfide bonds during refolding (step sizes in the probe pulse) [2]: none of the refolded domains formed a disulfide bond, indicating that the wild type form of thioredoxin does not catalyze reoxidation |
| B8 |  |  |  |  |  |  |  |  | reoxidation of substrate disulfide bonds during refolding (step sizes in the probe pulse) [2]: the step sizes during the probe pulse are now entirely composed of 11 and 14 nm steps, indicating the full reoxidation of all the disulfide bonds |
| B9 | All the ancestral enzymes resurrected using the methods described herein were able to trigger staircases of reduction events | -0.71 Å | 30 s⁻¹ | 0.19 s⁻¹ | 4.9 s⁻¹ | 470000 M⁻¹ s⁻¹ | 0.17 Å | 0.017 µM⁻¹ s⁻¹ |  |
